Consider two molecules from paper PMC5472179 (Nature Communications, 2017).

In the test the target is T1, eVP30 110-272 (Ebola virus (Zaire), UniProt Q05323 110-272).
T1 sequence: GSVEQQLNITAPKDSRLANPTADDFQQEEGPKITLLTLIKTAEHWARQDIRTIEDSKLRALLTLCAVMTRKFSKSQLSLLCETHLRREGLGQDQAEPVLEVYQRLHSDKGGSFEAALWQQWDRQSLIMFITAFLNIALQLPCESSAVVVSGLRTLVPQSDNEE
In words: fluorescence polarisation. To be noted: both partners purified.

Ends that are not written are not given here. * marks the point of attachment. FITC = O=C1OC2(c3ccc(O)cc3Oc3cc(O)ccc32)c2ccc(NC(=S)*)cc21

As for {FITC}-RTPTVAPPAPVYRDHS [FITC-labeled eNP600-615 peptide], the binding result is given as “binds”. As for RTPTVAPPAPVYRDHS [unlabeled eNP600-615 peptide], the entry is “binds”.
